According to publication PMC3994028:

Target: non-muscle myosin IIB (NM IIB) (rat (endogenous in hippocampal neurons of Sprague-Dawley rats and in PC12)) (UniProt Q9JLT0)
Test: proximity ligation; Duolink in situ PLA on fixed, permeabilised cultured hippocampal neurons (growth cones); primary antibodies against βPIX (or kalirin) and NM IIB, or βPIX and GIT; with or without 50 µM BBS for 15 or 30 min

UniProt Q9JLT0, sequence (Q9JLT0 whole entry): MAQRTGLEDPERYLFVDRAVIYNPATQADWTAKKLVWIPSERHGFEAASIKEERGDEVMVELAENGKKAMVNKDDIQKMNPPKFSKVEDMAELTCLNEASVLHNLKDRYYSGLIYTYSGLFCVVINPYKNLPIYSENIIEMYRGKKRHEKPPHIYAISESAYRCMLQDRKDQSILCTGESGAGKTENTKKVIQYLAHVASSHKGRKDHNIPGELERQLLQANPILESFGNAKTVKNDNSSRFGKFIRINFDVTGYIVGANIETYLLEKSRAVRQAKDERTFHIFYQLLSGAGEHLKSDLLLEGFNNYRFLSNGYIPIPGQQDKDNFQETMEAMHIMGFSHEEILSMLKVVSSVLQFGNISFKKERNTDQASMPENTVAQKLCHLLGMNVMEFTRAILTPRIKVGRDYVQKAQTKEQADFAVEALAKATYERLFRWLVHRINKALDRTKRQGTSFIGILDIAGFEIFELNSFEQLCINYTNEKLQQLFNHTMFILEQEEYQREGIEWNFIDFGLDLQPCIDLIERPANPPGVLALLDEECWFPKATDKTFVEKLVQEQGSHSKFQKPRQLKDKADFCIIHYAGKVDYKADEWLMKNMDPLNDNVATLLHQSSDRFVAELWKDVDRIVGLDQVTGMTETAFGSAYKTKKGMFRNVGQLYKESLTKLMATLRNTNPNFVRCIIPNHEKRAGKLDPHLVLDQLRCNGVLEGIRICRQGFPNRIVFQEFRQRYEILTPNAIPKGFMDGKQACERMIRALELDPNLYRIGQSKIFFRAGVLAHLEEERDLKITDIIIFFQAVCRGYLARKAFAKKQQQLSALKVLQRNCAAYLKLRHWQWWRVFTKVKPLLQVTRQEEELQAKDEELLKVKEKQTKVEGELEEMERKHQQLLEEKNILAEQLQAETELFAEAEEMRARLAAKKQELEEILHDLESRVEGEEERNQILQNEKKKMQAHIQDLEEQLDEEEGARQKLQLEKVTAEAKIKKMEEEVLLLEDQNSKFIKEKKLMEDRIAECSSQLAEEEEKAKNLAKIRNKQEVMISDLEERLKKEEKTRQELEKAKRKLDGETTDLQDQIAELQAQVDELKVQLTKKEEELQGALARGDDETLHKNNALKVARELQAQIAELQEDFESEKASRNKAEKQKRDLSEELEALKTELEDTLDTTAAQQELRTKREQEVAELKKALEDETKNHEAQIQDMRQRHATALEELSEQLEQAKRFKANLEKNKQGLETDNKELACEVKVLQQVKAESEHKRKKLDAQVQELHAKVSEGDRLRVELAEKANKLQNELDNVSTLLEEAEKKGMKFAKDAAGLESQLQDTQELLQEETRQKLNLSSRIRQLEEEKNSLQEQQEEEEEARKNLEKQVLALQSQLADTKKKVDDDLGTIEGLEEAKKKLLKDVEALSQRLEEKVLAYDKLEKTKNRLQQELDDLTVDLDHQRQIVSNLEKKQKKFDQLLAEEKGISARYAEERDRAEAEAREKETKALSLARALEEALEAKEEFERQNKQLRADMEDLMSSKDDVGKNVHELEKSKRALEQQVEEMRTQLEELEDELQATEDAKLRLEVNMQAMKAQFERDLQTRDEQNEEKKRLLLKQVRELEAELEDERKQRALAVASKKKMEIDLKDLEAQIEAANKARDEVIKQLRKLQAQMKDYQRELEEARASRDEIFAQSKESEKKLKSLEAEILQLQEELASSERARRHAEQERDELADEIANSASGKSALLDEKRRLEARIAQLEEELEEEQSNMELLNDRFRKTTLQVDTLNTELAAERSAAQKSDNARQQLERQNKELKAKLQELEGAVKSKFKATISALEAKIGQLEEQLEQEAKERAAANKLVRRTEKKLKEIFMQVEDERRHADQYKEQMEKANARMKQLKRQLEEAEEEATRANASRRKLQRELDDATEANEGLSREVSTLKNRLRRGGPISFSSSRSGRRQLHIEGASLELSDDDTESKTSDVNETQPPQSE

With “βPIX (endogenous, hippocampal neurons) (from UniProt O55043 1-646) (natural protein)” as the substance, how does the PLA fluorescence intensity in the actin-positive area 30 min after BBS, percent of untreated growth cones (% of untreated) read?
Its PLA fluorescence intensity in the actin-positive area 30 min after BBS, percent of untreated growth cones (% of untreated) is 51.
